Results published in patent publication US20240117054A1 (DRAGONFLY THERAPEUTICS, published 2024).
Residue numbers refer to the chain shown, from its start.

T1: cynomolgus monkey FLT3 (cFLT3) expressed on RMA cells (cynomolgus monkey, UniProt A0A2K5VQ48 27-993)
T1 construct: whole, on cells; also called RMA-cFLT3; cynomolgus FLT3
T1 sequence: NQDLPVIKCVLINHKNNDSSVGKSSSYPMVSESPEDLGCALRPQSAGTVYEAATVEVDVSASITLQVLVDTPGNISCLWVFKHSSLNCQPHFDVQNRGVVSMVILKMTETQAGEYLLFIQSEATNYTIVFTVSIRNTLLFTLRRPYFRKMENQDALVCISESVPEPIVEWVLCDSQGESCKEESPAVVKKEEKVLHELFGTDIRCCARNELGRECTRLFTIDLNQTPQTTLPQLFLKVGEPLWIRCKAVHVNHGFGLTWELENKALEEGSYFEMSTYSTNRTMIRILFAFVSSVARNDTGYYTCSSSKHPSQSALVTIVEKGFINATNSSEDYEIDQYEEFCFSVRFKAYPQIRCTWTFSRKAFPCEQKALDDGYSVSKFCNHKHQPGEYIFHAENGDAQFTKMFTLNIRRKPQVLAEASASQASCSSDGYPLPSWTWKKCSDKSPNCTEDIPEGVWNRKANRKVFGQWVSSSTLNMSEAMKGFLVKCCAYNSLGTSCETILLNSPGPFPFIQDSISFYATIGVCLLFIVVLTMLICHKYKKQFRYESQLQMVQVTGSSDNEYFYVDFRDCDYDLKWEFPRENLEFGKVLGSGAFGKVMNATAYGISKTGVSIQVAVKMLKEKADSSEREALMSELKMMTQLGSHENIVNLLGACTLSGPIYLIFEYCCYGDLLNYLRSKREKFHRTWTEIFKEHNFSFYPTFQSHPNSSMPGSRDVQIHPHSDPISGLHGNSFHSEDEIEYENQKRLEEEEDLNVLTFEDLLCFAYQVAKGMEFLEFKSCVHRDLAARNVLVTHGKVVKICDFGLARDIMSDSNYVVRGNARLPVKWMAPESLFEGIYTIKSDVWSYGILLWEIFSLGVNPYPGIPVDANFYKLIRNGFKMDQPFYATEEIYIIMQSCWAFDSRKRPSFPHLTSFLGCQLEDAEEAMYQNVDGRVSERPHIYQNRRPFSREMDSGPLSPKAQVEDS

T2: human FLT3 (hFLT3) expressed on cells (human, UniProt P36888 27-993)
T2 construct: whole, on cells; One molecule for all cell lines that carry human FLT3; also called RMA-hFLT3; FLT3 on REH cells
T2 sequence (looked up): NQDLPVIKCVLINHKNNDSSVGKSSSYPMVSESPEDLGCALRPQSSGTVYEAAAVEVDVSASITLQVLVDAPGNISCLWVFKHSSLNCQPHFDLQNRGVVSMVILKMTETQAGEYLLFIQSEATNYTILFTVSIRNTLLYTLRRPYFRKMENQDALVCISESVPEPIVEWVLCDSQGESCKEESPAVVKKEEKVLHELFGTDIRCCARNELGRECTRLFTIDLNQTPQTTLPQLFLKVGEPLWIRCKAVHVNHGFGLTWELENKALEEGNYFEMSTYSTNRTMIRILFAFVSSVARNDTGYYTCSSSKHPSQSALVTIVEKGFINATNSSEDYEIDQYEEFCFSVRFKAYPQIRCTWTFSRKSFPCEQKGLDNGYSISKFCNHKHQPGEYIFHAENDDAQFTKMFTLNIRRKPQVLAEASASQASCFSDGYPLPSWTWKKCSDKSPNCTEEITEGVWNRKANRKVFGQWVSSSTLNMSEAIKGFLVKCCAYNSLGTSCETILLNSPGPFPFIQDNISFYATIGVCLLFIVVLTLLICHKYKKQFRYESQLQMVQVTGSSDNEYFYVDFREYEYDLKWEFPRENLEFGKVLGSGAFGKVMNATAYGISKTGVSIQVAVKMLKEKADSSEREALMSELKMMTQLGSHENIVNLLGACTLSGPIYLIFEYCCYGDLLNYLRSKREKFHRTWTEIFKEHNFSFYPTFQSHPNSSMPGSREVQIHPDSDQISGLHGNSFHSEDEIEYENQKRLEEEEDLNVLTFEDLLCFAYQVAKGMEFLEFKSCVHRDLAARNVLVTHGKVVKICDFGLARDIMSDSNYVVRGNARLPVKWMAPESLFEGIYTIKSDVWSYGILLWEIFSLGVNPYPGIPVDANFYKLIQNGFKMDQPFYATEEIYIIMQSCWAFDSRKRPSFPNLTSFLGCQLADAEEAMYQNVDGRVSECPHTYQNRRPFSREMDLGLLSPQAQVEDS

T3: FLT3-T227M expressed on MOLM-13 cells (human, UniProt P36888 27-993)
T3 construct: whole, on cells; also called hFLT3-T227M; FLT3 with T227M mutation
T3 sequence (looked up): T2 sequence (looked up) with T201M

T4: FLT3-ITD expressed on MV4-11 cells (human, UniProt P36888 27-543)
T4 construct: whole, on cells; the ITD itself is not described; also called hFLT3-ITD; FLT3 with the ITD mutation
T4 sequence (looked up): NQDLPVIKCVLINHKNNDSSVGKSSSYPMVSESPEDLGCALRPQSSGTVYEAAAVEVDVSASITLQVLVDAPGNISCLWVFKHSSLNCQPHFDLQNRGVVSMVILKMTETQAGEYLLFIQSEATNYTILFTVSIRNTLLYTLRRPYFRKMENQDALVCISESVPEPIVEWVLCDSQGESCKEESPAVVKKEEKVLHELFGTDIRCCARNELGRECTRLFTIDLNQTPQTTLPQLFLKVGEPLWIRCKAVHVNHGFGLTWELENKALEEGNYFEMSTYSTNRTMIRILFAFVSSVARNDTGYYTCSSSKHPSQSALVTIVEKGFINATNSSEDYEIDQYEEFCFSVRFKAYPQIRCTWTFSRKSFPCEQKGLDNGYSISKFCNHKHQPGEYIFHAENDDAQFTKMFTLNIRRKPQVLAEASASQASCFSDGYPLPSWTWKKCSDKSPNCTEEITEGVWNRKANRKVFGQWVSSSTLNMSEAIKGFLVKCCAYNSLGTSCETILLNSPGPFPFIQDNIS

B1: GB102 monoclonal antibody in the human IgG1 format (antibody, V domains shown)
VH: QVQLVQSGAEVKKPGASVKVSCKASGYTFTRYVMHWVRQAPGQRLEWMGFINPYNDDTKYNEKFKGRVTITRDTSASTAYMELSSLRSEDTAVYYCARWRQLGSLDSWGQGTTVTVSS
VL: DIVMTQSPDSLAVSLGERATINCRASESVDTYGSSFVHWYQQKPGQPPKLLIYLASNLESGVPDRFSGSGSGTDFTLTISSLQAEDVAVYYCQQNNEEPWTFGGGTKVEIK
notes: also called parental mAb
B2: F3′-GB102 (bispecific antibody, human IgG1, kappa)
chain: DIVMTQSPDSLAVSLGERATINCRASESVDTYGSSFVHWYQQKPGQPPKLLIYLASNLESGVPDRFSGSGSGTDFTLTISSLQAEDVAVYYCQQNNEEPWTFGCGTKVEIKGGGGSGGGGSGGGGSGGGGSQVQLVQSGAEVKKPGASVKVSCKASGYTFTRYVMHWVRQAPGQCLEWMGFINPYNDDTKYNEKFKGRVTITRDTSASTAYMELSSLRSEDTAVYYCARWRQLGSLDSWGQGTTVTVSSGSDKTHTCPPCPAPELLGGPSVFLFPPKPKDTLMISRTPEVTCVVVDVSHEDPEVKFNWYVDGVEVHNAKTKPREEQYNSTYRVVSVLTVLHQDWLNGKEYKCKVSNKALPAPIEKTISKAKGQPREPRVYTLPPCRDELTKNQVSLTCLVKGFYPSDIAVEWESNGQPENNYKTTPPVLVSDGSFTLYSKLTVDKSRWQQGNVFSCSVMHEALHNHYTQKSLSLSPG
heavy: EVQLVESGGGLVKPGGSLRLSCAASGFTFSSYSMNWVRQAPGKGLEWVSSISSSSSYIYYADSVKGRFTISRDNAKNSLYLQMNSLRAEDTAVYYCARGAPIGAAAGWFDPWGQGTLVTVSSASTKGPSVFPLAPSSKSTSGGTAALGCLVKDYFPEPVTVSWNSGALTSGVHTFPAVLQSSGLYSLSSVVTVPSSSLGTQTYICNVNHKPSNTKVDKKVEPKSCDKTHTCPPCPAPELLGGPSVFLFPPKPKDTLMISRTPEVTCVVVDVSHEDPEVKFNWYVDGVEVHNAKTKPREEQYNSTYRVVSVLTVLHQDWLNGKEYKCKVSNKALPAPIEKTISKAKGQPREPQVCTLPPSRDELTENQVSLTCLVKGFYPSDIAVEWESNGQPENNYKTTPPVLDSDGSFFLYSWLTVDKSRWQQGNVFSCSVMHEALHNHYTQKSLSLSPG
light: DIQMTQSPSSVSASVGDRVTITCRASQGISSWLAWYQQKPGKAPKLLIYAASSLQSGVPSRFSGSGSGTDFTLTISSLQPEDFATYYCQQGVSFPRTFGGGTKVEIKRTVAAPSVFIFPPSDEQLKSGTASVVCLLNNFYPREAKVQWKVDNALQSGNSQESVTEQDSKDSTYSLSSTLTLSKADYEKHKVYACEVTHQGLSSPVTKSFNRGEC
notes: also called FLT3-targeting TriNKET

What was measured:
[1] = target: T1, cynomolgus monkey FLT3 (cFLT3) …; test: flow cytometry on RMA-cFLT3 cells, anti-human IgG secondary antibody, fold over background (FOB)
Source text: (§1) Isogenic cell lines ectopically expressing human and cynomolgus monkey FLT3 were used to assess cross-reactivity between human and cynomolgus monkey FLT3. […] cancer cell line RMA expressing hFLT3 or cFLT3 was used to assess tumor antigen binding of FLT3-targeting TriNKET and parental mAb. The human AML cell lines MOLM-13 and MV4-11 and the human ALL cell line REH were used to assess binding ability of the TriNKET or parental mAb. In particular, MOLM-13 cells and MV4-11 cells, which expressed FLT3-T227M and FLT3-ITD, respectively, were used to assess the ability of the FLT3-targeting TriNKET and parental mAb to bind mutant FLT3.
(§2) The cells were then incubated with a fluorophore conjugated anti-human IgG secondary antibody and were analyzed by flow cytometry. The mean fluorescence intensity (MFI) values were normalized to secondary antibody only controls to obtain fold over background (FOB) values.

[2] = target: T2, human FLT3 (hFLT3) expressed on cells; test: flow cytometry on REH cells, anti-human IgG secondary antibody, fold over background (FOB)
Source text: as §1, §2

[3] = target: T3, FLT3-T227M expressed on MOLM-13 cells; test: flow cytometry on MOLM-13 cells (FLT3-T227M), anti-human IgG secondary antibody, gMFI
Source text: as §1, §2

[4] = target: T2, human FLT3 (hFLT3) expressed on cells; test: flow cytometry on RMA-hFLT3 cells, anti-human IgG secondary antibody, fold over background (FOB)
Source text: as §1, §2

[5] = target: T4, FLT3-ITD expressed on MV4-11 cells; test: flow cytometry on MV4-11 cells (FLT3-ITD), anti-human IgG secondary antibody, gMFI
Source text: as §1, §2

| Binder | EC50 (read off the curve) [1] | EC50 (read off the curve) [2] | EC50 (read off the curve) [3] | EC50 (read off the curve) [4] | EC50 (read off the curve) [5] |
| --- | --- | --- | --- | --- | --- |
| B1 | ~0.6 nM | ~1 nM | ~2 nM | ~0.5 nM |  |
| B2 | ~1 nM | ~5 nM |  | ~1 nM | ~1 nM |
